For assay [1], the target named is Macaca fascicularis EGFR (cell surface) (Macaca fascicularis). The assay is described as follows: FACS binding to W562-CHO-K1.cPro1.H6 cells (monkey EGFR), lower panel and table. Background: In flow cytometry, cells or beads pass a laser one at a time.
In assay [2] the target is mouse EGFR (cell surface) (mouse) (UniProt Q01279). In words: FACS binding to W562-CHO-K1.mPro1.F3 cells (mouse EGFR), lower panel and table.
Assay [3] has the same target. In words: FACS binding to W562-CHO-K1.mPro1.F3 cells (mouse EGFR), lower panel and table; the curve is still rising at 100 nM.
Assay [4] addresses Macaca fascicularis EGFR (cell surface) (Macaca fascicularis). The assay is described as follows: FACS binding to W562.CHOK1.cPro1.H6 cells (monkey EGFR), upper panel and table.
The target of assay [5] is mouse EGFR (cell surface) (mouse) (UniProt Q01279). In words: FACS binding to mouse EGFR cells; the table head prints W562.CHOK1.cPro1.H6.

B1: W562-BMK3 (antibody, from another filing, human IgG1, V domains shown)
VH: QVQLQESGPGLVKPSETLSLTCTVSGLSLASNSVSWIRQPPGKGLEWMGVIWNHGGTDYNPSIKSRLSISRDTSKSQVFLKMNSLTAADTAMYFCVRKGGIYFDYWGQGVLVTVSS
VL: DTVLTQSPSLAVSPGERATISCRASESVSTLMHWYQQKPGQQPKLLIYLASHRESGVPARFSGSGSGTDFTLTIDPMEAEDTATYYCQQSRNDPWTFGQGTKLELKR
For orientation: EC50 means the midpoint of the concentration-response curve. B1: the EC50 was 1.24 nM in assay [1], 6.41 nM in assay [3], 1.47 nM in assay [4] and 2.42 nM in assay [5]. Also, the TOP MFI in assay [1] came out at 16000 MFI; in assay [2], 32800 MFI. The Top MFI in assay [4] was 37500 MFI; in assay [5], 31000 MFI.

Source of the values: patent publication US20210115146A1.
